{
  "source": "paper PMC9263355",
  "about": "(2022)",
  "target": "4-1BB (Homo sapiens, UniProt Q07011)",
  "sequence (Q07011 24-255)": "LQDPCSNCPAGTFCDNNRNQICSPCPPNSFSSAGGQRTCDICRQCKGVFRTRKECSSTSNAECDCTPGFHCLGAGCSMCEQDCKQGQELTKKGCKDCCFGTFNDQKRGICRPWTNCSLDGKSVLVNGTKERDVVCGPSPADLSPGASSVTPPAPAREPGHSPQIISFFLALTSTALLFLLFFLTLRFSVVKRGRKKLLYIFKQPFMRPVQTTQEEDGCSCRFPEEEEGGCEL",
  "experiment": "fluorescence anisotropy",
  "data": [
    {"binder": "Galectin-9N N-terminal CRD (protein) MAFSGSQAPYLSPAVPFSGTIQGGLQDGLQITVNGTVLSSSGTRFAVNFQTGFSGNDIAFHFNPRFEDGGYVVCNTRQNGSWGPEERKTHMPFQKGMPFDLCFLVQSSDFKVMVNGILFVQYFHRVPFHRVDTISVNGSVQLSYISFQ", "values": [
      {"measurement": "Kd", "result": "~1500", "unit": "nM"}
    ]}
  ]
}
